Square brackets hold non-standard residues; d marks the D form. Ends that are not written are not given here.

The data set concerns the molecule itself. In words: solid-state (MAS) NMR of fibrils; synthetic peptide aggregated at 1 mg/mL in PBS pH 7.4 at 37 °C, harvested by centrifugation after 2-3 weeks; 1H-15N HETCOR, 13 kHz MAS, 275 K.

B1: K2Q11pGQ11K2 polyQ peptide (peptide)
peptide: KKQQQQQQQQQQQ[dP]GQQQQQQQQQQQKK
modifications: also: two sequential Gln uniformly 13C,15N labelled, positions not given here
notes: written out from the printed formula K2Q11pGQ11K2; p is D-proline; also called polyQ model peptide; source: synthetic peptide (Yale University peptide facility)
Take B1: the binding result is given as “binds”.

Values taken from paper PMC11686214, “Integrative determination of atomic structure of mutant huntingtin exon 1 fibrils implicated in Huntington disease” (Nature Communications, 2024).
